Substrate in data set [1]: Nc1nc2nc[nH]c2c(=O)[nH]1
The data set can be described thus: purified protein. The note with it: 100 mM phosphate, pH 7.0, 25°C. Type of data set: biochemical, Kluyveromyces lactis.

Substrate in data set [2]: Nc1ncnc2nc[nH]c12
The data set can be described thus: purified protein. As to conditions: 100 mM potassium phosphate, pH 6.0, 30°C. The data set is classed as biochemical, Kluyveromyces lactis.

B1: KlacGDA (Kluyveromyces lactis NRRL Y-1140) (protein)
chain: MAPVTINMVKSEESFIDEPFHPEGVKIIVHYGNLIDTPELGQLRIRLKCAVGICSTSGVILFIEEGCDDPVIAALNYDRYLKDIDIHVIFNSVSDPAGKDSFYFPGFVDTHIHASQYPNCGIFGNSTLLDWLDTYTFPLESSLNDENIAALTYDAVISQTLKHGTTCASYFTTIDSNSSKIMADLCKSKGQRAFIGKVCMNQHSPSYYQETIEECKDASLDLIEYILKDLNSPLIKPIITPRFAITCSSALMDSLSEVAEEFDLPIQTHLNENDSEIAFVKELFKDCHSYTDVYHKHGLLNGKTVLAHCIHLEDSEIELLKKSSAGISHCPISNSSLTSGECRVKELLNYGLKVSLGSDVSGGFTVSILENARQALLVSRHRAMSVEDPERKEECKLSVAEVLYLATMGGAKVLNLSDKIGSFDVGKEFDAQLIDLSTKGSNVSIFPWQKVTNDKIQPNGKDRIKLENIVAKWLFNGDDRNVKSVWVRGKLCHQNL
notes: full length, N-terminal 6xHis (pET28c NdeI/XhoI), E. coli BL21(DE3); 106 kDa dimer; gene at chromosome D 1,643,703-1,645,193 (1491 bp, about 496 residues)
In general, Km refers to the substrate concentration at which the rate is half of its maximum. For orientation: kcat means the maximal rate divided by the concentration of active sites. As a reminder, the kcat/Km is the turnover number divided by the Michaelis constant. For B1, in data set [1], the Km stood at 83 ± 2.7 µM, the kcat is 7.3 ± 1.2 s⁻¹ and the kcat/Km was determined as 87000 M⁻¹ s⁻¹.

B2: KlacADA (Kluyveromyces lactis NRRL Y-1140) (protein)
chain: MAKFECTDEVTNFLTELPKCEHHLHLEGTLEPELLFQLVERNGVQLPGTFPKTVNELHVIYNNFADLQDFLNYYYIGCNVLLSEDDFFELAWSYFKRVSTQGLRHAEVFYDPQSHTSRGISLEVVTKGFERACAKAQEEFNISTKLIMCLLRHCPVEECMDTVKSAKSLIESGVIDGLGLDSSERPFPPELFVECYQLAKSYNKELQLTAHAGEEGDPSFVTNTLDLLETTRIDHGVRSIEDAELIKRLAAQKVMLTLCPLSNVKLQVVKDVSELPLQEFLDNDVPFSINSDDPAYFGGYILQNYLEVYSRFGWSKAVWAKIARQSIEGSWCDPKRKQELLSEVSEVVNKYVNLP
notes: full length, N-terminal 6xHis (pET28c NdeI/XhoI), E. coli BL21(DE3); 46 kDa monomer; gene at chromosome E 2,064,516-2,065,583, no introns (1068 bp, about 355 residues)
Turning to B2, in data set [2], the Michaelis-Menten constant (Km) came to 680 ± 4.6 µM, the kcat came to 8.1 ± 1.3 s⁻¹ and the kcat/Km is 11000 M⁻¹ s⁻¹.

The values are drawn from paper PMC6281700, “Biochemical Characterization of Kluyveromyces lactis Adenine Deaminase and Guanine Deaminase and Their Potential Application in Lowering Purine Content in Beer” (Frontiers in Bioengineering and Biotechnology, 2018).
